# Measured values taken from the Immune Epitope Database (IEDB).
# pKd: −log10 of the molar value.
# Legend:
# HLA-A*32:01 = assay: IEDB peptide-MHC binding, purified MHC/competitive/radioactivity; filed as Kd, often an IC50 or EC50 that approximates it; ≥ and ≤ were set here for values at or beyond the usual limits of such assays
# HLA-B*44:03 = assay: as above; settings: source organism: Dengue virus 2 Jamaica/1409/1983
# HLA-B*44:02 = assay: as above; settings: source organism: Dengue virus 2 Jamaica/1409/1983
# HLA-B*40:01 = assay: as above; settings: source organism: Dengue virus 2 Jamaica/1409/1983
# HLA-A*30:01 = assay: as above
# HLA-A*02:01 [1] = assay: IEDB peptide-MHC binding, purified MHC/competitive/fluorescence; filed as Kd, often an IC50 or EC50 that approximates it; ≥ and ≤ were set here for values at or beyond the usual limits of such assays
# HLA-A*26:01 [2] = assay: IEDB peptide-MHC binding, purified MHC/competitive/radioactivity; filed as Kd, often an IC50 or EC50 that approximates it; ≥ and ≤ were set here for values at or beyond the usual limits of such assays
# HLA-A*30:02 = assay: as above
# HLA-A*29:02 = assay: as above
# HLA-A*01:01 [3] = assay: as above
# HLA-B*07:02 = assay: as above; settings: source organism: Dengue virus 1 Brazil/97-11/1997
# HLA-A*26:01 [4] = assay: IEDB peptide-MHC binding, purified MHC/direct/fluorescence; filed as Kd, often an IC50 or EC50 that approximates it; ≥ and ≤ were set here for values at or beyond the usual limits of such assays; settings: source organism: Mycobacterium tuberculosis
# HLA-A*01:01 [5] = assay: as above; settings: source organism: Mycobacterium tuberculosis variant bovis BCG str. Pasteur 1173P2
# HLA-A*68:02 = assay: IEDB peptide-MHC binding, purified MHC/competitive/radioactivity; filed as Kd, often an IC50 or EC50 that approximates it; ≥ and ≤ were set here for values at or beyond the usual limits of such assays
# HLA-B*51:01 = assay: as above
# HLA-A*02:03 = assay: as above; settings: source organism: Trypanosoma cruzi
# HLA-A*02:02 = assay: as above; settings: source organism: Trypanosoma cruzi
# HLA-A*02:06 = assay: as above
# HLA-B*35:01 = assay: as above
# HLA-A*02:01 [6] = assay: as above
# HLA-B*53:01 = assay: as above; settings: source organism: Dengue virus 1 Brazil/97-11/1997
# HLA-A*03:01 = assay: as above; settings: source organism: Dengue virus 2 Jamaica/1409/1983
# [7] = source organism: Dengue virus 2 Jamaica/1409/1983
# [8] = source organism: Dengue virus 3 Martinique/1243/1999
# [9] = source organism: Mammarenavirus guanaritoense
# [10] = source organism: Mammarenavirus brazilense
# [11] = source organism: Trypanosoma cruzi
# [12] = source organism: Dengue virus 4 Dominica/814669/1981
# [13] = source organism: Dengue virus 1 Brazil/97-11/1997
# [14] = source organism: Dengue virus 4 Philippines/H241/1956
# [15] = source organism: Vaccinia virus WR
# [16] = source organism: Mammarenavirus lassaense
sequence,measurement,setting,value
AAAWYLWEVK,pKd,HLA-A*32:01; [7],5.69
AEISGSSPIL,pKd,HLA-B*44:03,8.17
same,pKd,HLA-B*44:02,8.21
same,pKd,HLA-B*40:01,8.98
same,pKd,HLA-A*30:01; [7],4.79
AIVGGLAEL,pKd,HLA-A*02:01 [1]; source organism: Japanese encephalitis virus,7.92
ALSSDGDTV,pKd,HLA-A*02:01 [1]; source organism: Vaccinia virus Tian Tan,8.02
ATFKIQPFL,pKd,HLA-A*30:01; [8],6.44
AVAANIVLTV,pKd,HLA-A*02:01 [1]; source organism: Homo sapiens,6.68
AVFQPSTGNY,pKd,HLA-A*32:01; [9],≤ 4.16
same,pKd,HLA-A*26:01 [2]; [9],6.11
same,pKd,HLA-A*30:02; [9],7.67
same,pKd,HLA-A*29:02; [9],6.09
same,pKd,HLA-A*30:01; [9],4.91
same,pKd,HLA-A*01:01 [3]; [9],≤ 4.56
CTREEFTRK,pKd,HLA-A*30:01; [7],7.19
DPRRCLKPV,pKd,HLA-B*07:02,6.65
DTRTQTWMSA,pKd,HLA-A*32:01; [8],5.24
DVAAMSGYY,pKd,HLA-A*26:01 [4],8.52
same,pKd,HLA-A*01:01 [5],6.50
EMFKTKGRY,pKd,HLA-A*32:01; [10],≤ 4.11
same,pKd,HLA-A*26:01 [2]; [10],6.19
same,pKd,HLA-A*30:02; [10],6.88
same,pKd,HLA-A*29:02; [10],4.94
same,pKd,HLA-A*30:01; [10],5.05
same,pKd,HLA-A*01:01 [3]; [10],≤ 4.49
EVKKQRAGV,pKd,HLA-A*26:01 [2]; [7],5.04
same,pKd,HLA-A*68:02; [7],7.21
FAAGLLLRKL,pKd,HLA-B*51:01; [7],4.94
FANNKFTLV,pKd,HLA-A*02:03,8.87
same,pKd,HLA-A*02:02,7.19
same,pKd,HLA-A*68:02; [11],7.12
same,pKd,HLA-A*02:06; [11],8.52
FLEQQNKIL,pKd,HLA-A*68:02; source organism: Homo sapiens,≤ 3.87
FTILALFLAH,pKd,HLA-B*35:01; [8],≤ 4.60
same,pKd,HLA-A*26:01 [2]; [8],≤ 4.68
FTVQADMGCV,pKd,HLA-A*68:02; [12],8.45
same,pKd,HLA-B*51:01; [12],≤ 4.23
same,pKd,HLA-A*02:06; [12],6.96
FVDYNFSLV,pKd,HLA-A*02:03,8.37
same,pKd,HLA-A*02:02,9.30
same,pKd,HLA-A*68:02; [11],7.12
same,pKd,HLA-A*02:06; [11],9.18
GITRPTTLV,pKd,HLA-A*02:03,5.94
same,pKd,HLA-A*02:01 [6]; [11],≤ 4.03
same,pKd,HLA-A*02:02,4.86
same,pKd,HLA-A*68:02; [11],4.92
same,pKd,HLA-A*02:06; [11],4.91
GKTRRYLPAI,pKd,HLA-A*30:01; [13],6.17
GPVLTLWEGN,pKd,HLA-A*32:01; [14],5.81
HPGFTVIAL,pKd,HLA-B*53:01,7.53
same,pKd,HLA-B*35:01; [13],8.81
same,pKd,HLA-B*07:02,8.50
HVGRPTTVV,pKd,HLA-A*02:03,6.34
same,pKd,HLA-A*02:01 [6]; [11],5.01
same,pKd,HLA-A*02:02,5.97
same,pKd,HLA-A*68:02; [11],7.68
same,pKd,HLA-A*02:06; [11],6.19
IALSVLAVL,pKd,HLA-A*02:01 [6]; source organism: Lassa virus Josiah,5.72
IIFFIVLIL,pKd,HLA-A*32:01; [15],7.91
IISLWDQSL,pKd,HLA-A*02:01 [6]; source organism: HIV-1 M:B_MN,6.55
ILPVIFLSI,pKd,HLA-A*32:01; [15],8.35
IPNHGVTAT,pKd,HLA-B*35:01; [14],5.64
ISRFANLIK,pKd,HLA-A*30:01; [15],7.87
ITLFLILCY,pKd,HLA-A*32:01; [15],5.74
ITVYFRRTI,pKd,HLA-A*32:01; [15],7.59
KLGFEEIKGL,pKd,HLA-A*02:01 [1]; source organism: Vaccinia virus Copenhagen,7.51
KLYTIVSTL,pKd,HLA-A*32:01; [15],8.15
KQNMLHVII,pKd,HLA-A*32:01; [15],8.67
KSRLNALGK,pKd,HLA-A*03:01,7.95
same,pKd,HLA-A*30:01; [7],8.46
KTGECSKCY,pKd,HLA-A*32:01; [16],5.17
same,pKd,HLA-A*26:01 [2]; [16],≤ 4.11
same,pKd,HLA-A*30:02; [16],6.08
same,pKd,HLA-A*29:02; [16],4.99
same,pKd,HLA-A*30:01; [16],4.73
same,pKd,HLA-A*01:01 [3]; [16],4.89
KVFVPAPFG,pKd,HLA-A*30:01; [15],8.18
KVLRPTPRG,pKd,HLA-A*30:01; [12],6.52
